Experimental findings from paper PMC6472409, “Dishevelled-3 conformation dynamics analyzed by FRET-based biosensors reveals a key role of casein kinase 1” (Nature Communications, 2019) are described below.

Test [1] concerns Wnt/β-catenin pathway. Description: Dual Luciferase TopFlash/Renilla Reporter Assay. As to conditions: for TopFlash relative to ctrl (= 1): Suppl. Fig. 2a; for TopFlash FlAsH III (CK1e-/-), relative to ctrl (= 1): Suppl. Fig. 4f; for TopFlash FlAsH III (CK1e-/-), relative to ctrl (= 1) / TopFlash in CK1e-/- relative to CK1e wt (= 1): CK1e-/- cells; for TopFlash relative to DVL3 wt (= 1) / TopFlash in CK1e-/- relative to CK1e wt (= 1): Fig 8d. Type of test: cell-based, human. The protocol: Cells were transfected 24 h after seeding with 0.1 μg of Super8X TopFlash construct, 0.1 μg of Renilla luciferase construct, and 0.1 μg of corresponding plasmids per well for 6 h in a 24-well plate. As for the ECFP-DVL3 FIII wt stable cell lines, transfection was followed by 4 h induction of tetracycline (1 µg/ml) and 8 h treatment of CM:DMEM (1:1 ratio). For performing this assay, Promega Dual Luciferase assay kit (Promega, #E1910) was used according to the manufacturer’s instructions. Luminescence was measured by a Hidex Bioscan Plate Chameleon Luminometer. Results are depicted as the ratio of TopFlash and Renilla signal (TopFlash fold induction), which was normalized for each experiment to certain control column (normalized TopFlash fold induction). Data were analyzed by MS Excel 2007 and GraphPad Prism 6 and results were shown as the means ± S.D. (number of experiments indicated ad hoc).
(Reporter assays use an easily measured gene product as a stand-in for the process of interest.)

The subject of test [2] is DVL3 membrane recruitment by FZD6 in HEK293 cells. Briefly: FZD6-dependent membrane recruitment of DVL3, immunofluorescence. As to conditions: Fig 8c. The class given is cell-based, human. Also on record: key to Non-recruited (DVL3 membrane recruitment): number of cells out of 100 positive cells scored. The source says:
First, we analyzed the preferred subcellular localization of DVL3 (as introduced in Fig. 2c)[10],[14]. […] Next, we investigated if DVL3 conformation correlates with the capacity of DVL3 to be recruited by FZD6, a key Wnt receptor, to the plasma membrane. For this purpose, we co-expressed FZD6 and analyzed membrane recruitment of DVL3 in FZD6-positive cells by immunofluorescence. Individual cells were categorized as: not recruited (Fig. 8b, no DVL3 in the membrane), partially recruited (clear membrane as well as cytoplasmic localization), and fully recruited (predominantly plasma membrane localization, Fig. 8c, left). […] In the last readout we analyzed the capacity of DVL3 to activate downstream Wnt/β-catenin pathway monitored by TopFlash reporter assay (Fig. 8d). […] On the other hand, under conditions that favor the open conformation both activation as well as inhibition of the Wnt/β-catenin pathway was evident.
For immunofluorescence, cells were seeded (40,000 per well) on 24-well plates with gelatin-coated coverslips and transfected, as indicated, with 0.1 μg of each corresponding plasmid (0.3 μg of mCherry-FZD6) for 6 h. For western blotting and Dual Luciferase TopFlash/Renilla Reporter Assay, cells were seeded (60,000 per well) directly on 24-well plates with 0.1 μg of each corresponding plasmid (if not indicated otherwise) for 6 h. For coimmunoprecipitation, cells were seeded (4.4 × 10^6) on 10-cm dishes and transfected with 1 μg of each corresponding plasmid. The next day after seeding, cells were transfected using polyethyleneimine (PEI) in a stoichiometry of 6 μl of PEI per 1 μg of DNA for 6 h and were harvested 24 h after transfection. The following plasmids used in HEK293 cells have been described previously: FLAG-DVL3 wt[47], CK1ϵ wt[48], mCherry-FZD6 (ref. [37]), and dominant-negative CK1ϵ P3 (ref. [33]). The ECFP-DVL3 wt plasmid was made by Gateway Technology (via LR recombination according to the manufacturer’s instructions; Thermo Fisher Scientific, #11791020) from the donor plasmid pDONR221 DVL3 (DNASU, #FLH178665.01x) and the destination plasmid pdECFP (LMBP, #4548). The HA-DVL3 wt plasmid was made by Gateway Technology from the donor plasmid pDONR221 DVL3 (DNASU, #FLH178665.01x) and the destination plasmid pcDNA3.1 N-term HA (gift from Erich Nigg).
Cells were seeded on gelatin-coated coverslips in 24-well plates and were transfected the next day. Cells were fixed 24 h later in fresh 4% paraformaldehyde, permeabilized with 0.5% Triton X-100, blocked with PBS/BSA/Triton/Azide buffer (PBTA) [3% (wt/vol) BSA, 0.25% Triton, 0.01% NaN3] for 1 h, and incubated overnight with primary antibodies (in dilution 1:500) in PBTA at 4 °C. The next day, the coverslips were washed in PBS and incubated with secondary antibodies conjugated to Alexa Fluor 488 (Invitrogen A11001) or/and Alexa Fluor 594 (Invitrogen A11058) (all in dilution 1:1000), washed with PBS [in case of samples containing FLAG-DVL3 WT and derived variants stained with DAPI (1:5000)], and all coverslips were mounted on microscopic slides. Cells were then visualized on an Olympus IX51 fluorescent microscope using ×40 air or ×100 oil objectives and/or an Olympus Fluoview 500 confocal laser scanning microscope IX71 using ×100 oil objective. One hundred positive cells per experiment (n = 3) were analyzed and scored according to their phenotype into two/three categories (punctae/even); or non-recruited/partially/fully recruited for FZD6-dependent recruitment of DVL3. The antibodies used were as follows: anti-FLAG M2 (Sigma-Aldrich, #F1804), anti-DVL3 (Santa Cruz, #sc-8027), anti-CK1ɛ (Santa Cruz, #sc-6471), anti-RFP (Chromotek, #5h9) and anti-GFP (Fitzgerald, #20R-GR-011).

Where [3] appears, read: sensor FlAsH III, replicate of grid row r5.
The mark [4] stands for this setting: sensor FlAsH III, replicate of grid row r6.
[5] abbreviates: sensor FlAsH III, replicate of grid row r7.
Setting [6] is: panel of CK1e-/- comparison, wt cells, exp1.
The mark [7] stands for this setting: panel of CK1e-/- comparison, wt cells, exp3.

CK1e: the “TopFlash relative to ctrl (= 1)” value is 1.477 in test [1] (sensor FlAsH I, replicate of grid row r5); 1.51 in test [1] (sensor FlAsH I, replicate of grid row r6); 1.233 in test [1] (sensor FlAsH I, replicate of grid row r7); 1.907 in test [1] (sensor FlAsH II, replicate of grid row r5); 2.332 in test [1] (sensor FlAsH II, replicate of grid row r6); 1.874 in test [1] (sensor FlAsH II, replicate of grid row r7). Also, the “TopFlash relative to ctrl (= 1)” value in test [1] (setting [3]) is given as 2.614; in test [1] (setting [4]), 1.858; in test [1] (setting [5]), 2.849; in test [1] (sensor FlAsH IV, replicate of grid row r5), 3.481; in test [1] (sensor FlAsH IV, replicate of grid row r6), 2.7; in test [1] (sensor FlAsH IV, replicate of grid row r7), 1.4298. Moreover, the “TopFlash FlAsH III (CK1e-/-), relative to ctrl (= 1)” value was 2.409 in test [1] (setting [3]), 2.306 in test [1] (setting [4]) and 3.0297 in test [1] (setting [5]).

With Ck1e, the “TopFlash relative to DVL3 wt (= 1)” value in test [1] (replicate of grid row r4) amounted to 2.8; in test [1] (replicate of grid row r5), 2.5; in test [1] (replicate of grid row r6) it was 1.85. The entries for the “Fully recruited (DVL3 membrane recruitment)” value (“Fully recruited” below) in test [2] (exp1), in test [2] (exp2) and in test [2] (exp3) were 8, 43 and 15, respectively. In addition, the figures for the “Non-recruited (DVL3 membrane recruitment)” value (shortened to “Non-recruited”) in test [2] (exp1), in test [2] (exp2) and in test [2] (exp3) were 58, 27 and 63, respectively. Further, the “Partially recruited (DVL3 membrane recruitment)” value (shortened to “Partially recruited”) is given as 34 in test [2] (exp1), 30 in test [2] (exp2) and 22 in test [2] (exp3).

B1: DVL3 wt (protein, UniProt Q92997 1-716, looked up)
Segment polarity protein …: MGETKIIYHLDGQETPYLVKLPLPAERVTLADFKGVLQRPSYKFFFKSMDDDFGVVKEEISDDNAKLPCFNGRVVSWLVSAEGSHPDPAPFCADNPSELPPPMERTGGIGDSRPPSFHPHAGGGSQENLDNDTETDSLVSAQRERPRRRDGPEHATRLNGTAKGERRREPGGYDSSSTLMSSELETTSFFDSDEDDSTSRFSSSTEQSSASRLMRRHKRRRRKQKVSRIERSSSFSSITDSTMSLNIITVTLNMEKYNFLGISIVGQSNERGDGGIYIGSIMKGGAVAADGRIEPGDMLLQVNEINFENMSNDDAVRVLREIVHKPGPITLTVAKCWDPSPRGCFTLPRSEPIRPIDPAAWVSHTAAMTGTFPAYGMSPSLSTITSTSSSITSSIPDTERLDDFHLSIHSDMAAIVKAMASPESGLEVRDRMWLKITIPNAFIGSDVVDWLYHNVEGFTDRREARKYASNLLKAGFIRHTVNKITFSEQCYYIFGDLCGNMANLSLHDHDGSSGASDQDTLAPLPHPGAAPWPMAFPYQYPPPPHPYNPHPGFPELGYSYGGGSASSQHSEGSRSSGSNRSGSDRRKEKDPKAGDSKSGGSGSESDHTTRSSLRGPRERAPSERSGPAASEHSHRSHHSLASSLRSHHTHPSYGPPGVPPLYGPPMLMMPPPPAAMGPPGAPPGRDLASVPPELTASRQSFRMAMGNPSEFFVDVM
B1: the “TopFlash in CK1e-/- relative to CK1e wt (= 1)” value came to 0.2303 in test [1] (replicate of grid row r4), 0.1152 in test [1] (replicate of grid row r5), 0.24 in test [1] (replicate of grid row r6) and 0.2094 in test [1] (replicate of grid row r7). Moreover, the “Fully recruited” value in test [2] (CK1e-/- cells, exp1) was found to be 31; in test [2] (CK1e-/- cells, exp2) it was 16; in test [2] (CK1e-/- cells, exp3), 26; in test [2] (exp1) it was 11; in test [2] (exp2), 20; in test [2] (exp3) it was 22. Moreover, the “Fully recruited” value in test [2] (setting [6]) was 8; in test [2] (setting [7]), 20. The “Non-recruited” value is recorded as 33 in test [2] (CK1e-/- cells, exp1); 44 in test [2] (CK1e-/- cells, exp2); 50 in test [2] (CK1e-/- cells, exp3); 58 in test [2] (exp1); 34 in test [2] (exp2); 48 in test [2] (exp3). Besides, the “Non-recruited” value in test [2] (setting [6]) is listed as 65; in test [2] (setting [7]), 51. Also, the “Partially recruited” value in test [2] (CK1e-/- cells, exp1) turned out to be 36; in test [2] (CK1e-/- cells, exp2), 40; in test [2] (CK1e-/- cells, exp3), 24; in test [2] (exp1), 31; in test [2] (exp2), 46; in test [2] (exp3), 30. Also, the entries for the “Partially recruited” value in test [2] (setting [6]) and in test [2] (setting [7]) were 27 and 29, respectively.
